Data on one substance can be found in CN116745314A.

The experiment deals with spike glycoprotein of live SARS-CoV-2 (isolate USA-WA1/2020) (SARS-CoV-2) (UniProt P0DTC2). In words: cell-based or functional assay.

In the case of S2E12-LS (antibody), the EC50 (live SARS-CoV-2-luc neutralisation, MOI 0.1, 6 h) stood at 5 ng/mL; the EC90 (live SARS-CoV-2-luc neutralisation, MOI 0.1, 6 h) worked out at 30 ng/mL; the IC50 (live SARS-CoV-2-luc neutralisation, MOI 0.1, 6 h) came out at 4.84 ng/mL.
